Results from PMC4125498 (Nature structural & molecular biology, 2014).
Values belong to the binder of their own block, whether it stands above or below them. No end group written: not given here.

B1: human Plk4 cryptic polo box (CPB, residues 580–808), His6-MBP tag removed (domain or fragment, UniProt O00444 580-808, looked up)
chain: WGYQNRTLRSITSPLVAHRLKPIRQKTKKAVVSILDSEEVCVELVKEYASQEYVKEVLQISSDGNTITIYYPNGGRGFPLADRPPSPTDNISRYSFDNLPEKYWRKYQYASRFVQLVRSKSPKITYFTRYAKCILMENSPGADFEVWFYDGVKIHKTEDFIQVIEKTGKSYTLKSESEVNSLKEEIKMYMDHANEGHRICLALESIISEEERKTRSAPFFPIIIGRKPG

Legend:
[1] = target: T1, His6-MBP-TEV-Cep192 58mer (201–258) (human, UniProt Q8TEP8 201-258); experiment: pull-down
T1 sequence (looked up): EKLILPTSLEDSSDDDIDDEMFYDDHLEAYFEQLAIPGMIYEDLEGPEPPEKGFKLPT

[2] = target: B1; experiment: fluorescence polarisation
GST-Plk4 C (580–970) = target: T2, GST-Plk4 C (580–970) (human, UniProt O00444 580-970); experiment: pull-down
T2 sequence (looked up): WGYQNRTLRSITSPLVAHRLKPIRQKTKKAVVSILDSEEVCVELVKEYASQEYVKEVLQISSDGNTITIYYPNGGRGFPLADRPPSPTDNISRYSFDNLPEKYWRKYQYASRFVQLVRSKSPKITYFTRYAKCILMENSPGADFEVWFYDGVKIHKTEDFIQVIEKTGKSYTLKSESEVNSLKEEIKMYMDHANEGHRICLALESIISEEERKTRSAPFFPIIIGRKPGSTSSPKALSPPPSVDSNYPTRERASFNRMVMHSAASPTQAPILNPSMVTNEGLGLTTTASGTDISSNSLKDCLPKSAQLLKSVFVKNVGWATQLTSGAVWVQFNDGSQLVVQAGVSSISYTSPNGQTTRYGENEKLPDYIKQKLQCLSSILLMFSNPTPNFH

[3] = target: B1; experiment: fluorescence polarisation; remark: listed apart in the source

Binder: B1
stoichiometry N [1]: ~2 MBP-Cep192-58mer per CPB dimer

B4: Alexa 488-conjugated MBP-Cep152-60mer (domain or fragment, human, UniProt O94986 1-60, looked up)
chain: MSLDFGSVALPVQNEDEEYDEEDYEREKELQQLLTDLPHDMLDDDLSSPELQYSDCSEDG
modifications: also: Alexa Fluor 488 conjugated, sites not given here, MBP fusion
Kd [2]: 0.032 µM

Now from value to binder:

Kd [2]: 0.177 µM
B2: Alexa 488-conjugated MBP-Cep192-58mer (domain or fragment, human, UniProt Q8TEP8 201-258, looked up)
chain: EKLILPTSLEDSSDDDIDDEMFYDDHLEAYFEQLAIPGMIYEDLEGPEPPEKGFKLPT
modifications: also: Alexa Fluor 488 conjugated, sites not given here, MBP fusion

binding result (GST-Plk4 C (580–970)): binds
B3: His6-MBP-TEV-Cep152 (1–217) (domain or fragment, human, UniProt O94986 1-217, looked up)
chain: MSLDFGSVALPVQNEDEEYDEEDYEREKELQQLLTDLPHDMLDDDLSSPELQYSDCSEDGTDGQPHHPEQLEMSWNEQMLPKSQSVNGYNEIQSLYAGEKCGNVWEENRSKTEDRHPVYHPEEGGDEGGSGYSPPSKCEQTDLYHLPENFRPYTNGQKQEFNNQATNVIKFSDPQWNHFQGPSCQGLEPYNKVTYKPYQSSAQNNGSPAQEITGSDT

IC50 [3]: 0.064 µM
B5: His6-MBP-TEV-Cep152 60mer (1–60) (domain or fragment, human, UniProt O94986 1-60, looked up)
chain: MSLDFGSVALPVQNEDEEYDEEDYEREKELQQLLTDLPHDMLDDDLSSPELQYSDCSEDG
